From patent US20100292153A1 (US Dept. of Health and Human Services, published 2010)

Biological target: T1, TRAF2 (untagged) (UniProt Q12933 1-501, limits assumed)
T1 construct: Negative control
T1 sequence (looked up): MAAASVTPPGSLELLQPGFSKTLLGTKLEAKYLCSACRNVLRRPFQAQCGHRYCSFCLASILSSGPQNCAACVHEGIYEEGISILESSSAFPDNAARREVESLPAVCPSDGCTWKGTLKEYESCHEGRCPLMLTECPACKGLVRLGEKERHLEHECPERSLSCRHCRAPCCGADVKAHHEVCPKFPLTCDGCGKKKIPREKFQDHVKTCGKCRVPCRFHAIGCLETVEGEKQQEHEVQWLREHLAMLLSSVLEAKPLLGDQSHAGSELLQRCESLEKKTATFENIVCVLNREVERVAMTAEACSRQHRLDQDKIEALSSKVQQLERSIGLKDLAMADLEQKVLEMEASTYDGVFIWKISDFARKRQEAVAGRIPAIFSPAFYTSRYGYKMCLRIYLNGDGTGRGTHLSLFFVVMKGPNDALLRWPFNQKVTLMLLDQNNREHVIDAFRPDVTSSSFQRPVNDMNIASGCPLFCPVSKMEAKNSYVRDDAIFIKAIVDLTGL
Assay: co-immunoprecipitation from transfected HEK293 cells (anti-FLAG beads, anti-TRAF2 immunoblot)
Method: Whole cell lysates were prepared 48 hrs after the transfection and were incubated with anti-FLAG conjugated beads (Sigma) overnight.

- binding result: no binding
B1: FLAG-tagged human IRF4 (other, UniProt Q15306 1-451, looked up)
chain: MNLEGGGRGGEFGMSAVSCGNGKLRQWLIDQIDSGKYPGLVWENEEKSIFRIPWKHAGKQDYNREEDAALFKAWALFKGKFREGIDKPDPPTWKTRLRCALNKSNDFEELVERSQLDISDPYKVYRIVPEGAKKGAKQLTLEDPQMSMSHPYTMTTPYPSLPAQQVHNYMMPPLDRSWRDYVPDQPHPEIPYQCPMTFGPRGHHWQGPACENGCQVTGTFYACAPPESQAPGVPTEPSIRSAEALAFSDCRLHICLYYREILVKELTTSSPEGCRISHGHTYDASNLDQVLFPYPEDNGQRKNIEKLLSHLERGVVLWMAPDGLYAKRLCQSRIYWDGPLALCNDRPNKLERDQTCKLFDTQQFLSELQAFAHHGRSLPRFQVTLCFGEEFPDPQRQRKLITAHVEPLLARQLYYFAQQNSGHFLRGYDLPEHISNPEDYHRSIRHSSIQE
notes: Expressed by transfection in HEK293 cells; pulled down from whole cell lysates with anti-FLAG beads; it is entered under this molecule; also called IFN-regulatory factor 4; FLAG-tagged IRF4; not shown: FLAG tag
